Results reported in patent US20070116694A1, “Inhibitor of interaction of granzyme b with golgin-160” (Daiichi Pharmaceutical Co., Ltd., priority 2003, published 2007).

Molecular target: T1, Granzyme B (Homo sapiens, UniProt P10144)
T1 construct: purchased Calbiochem 368042
Assay: in vitro protease assay (decomposition by Granzyme B)
Assay type: biochemical
Settings: Granzyme B 0.05 μg, substrate protein 0.2 μg, 37° C. for 2 hours, SDS-PAGE, Coomassie Brilliant Blue
Description: An in vitro protease assay was carried out to confirm in an experiment whether or not Golgin-160 is decomposed by Granzyme B. Granzyme B, Human, cell culture-derived (Calbiochem, Catalog No. 368042) was purchased, and this product was used as Granzyme B. Granzyme B (0.05 μg) was added to 10 μl of a cleavage buffer containing TRX-Golgin-160, procaspase-3, or TRX-LAG 3 (0.2 μg each) (wherein the buffer consisted of 50 mM Hepes-KOH (pH 7.4), 2 mM EDTA, 1% NP-40, 0.1 M NaCl, and 10 mM DTT) (Kam C. M., Huding D., et al., “Granzymes (lymphocyte serine proteases): characterization with natural and synthetic substrates and inhibitors” in Biochim. Biophys. Acta, 1477:307-323 (2000)). The obtained mixture was incubated at 37° C. for 2 hours. After completion of the incubation, 2×SDS sample buffer (125 mM Tris-HCl (pH 6.8), 4% (w/v) sodium dodecyl sulfate, 20% (v/v) glycerol, 0.01% (w/v) bromophenol blue, and 20% (v/v) 2-mercaptoethanol) was added at an equivalent amount to each reaction solution, and the obtained mixture was heated for 5 minutes. Thereafter, the obtained reaction mixture was separated by SDS-PAGE and then stained with Coomassie Brilliant Blue. Thus, a protein and a decomposition product thereof were observed.

T1 sequence (P10144 21-247): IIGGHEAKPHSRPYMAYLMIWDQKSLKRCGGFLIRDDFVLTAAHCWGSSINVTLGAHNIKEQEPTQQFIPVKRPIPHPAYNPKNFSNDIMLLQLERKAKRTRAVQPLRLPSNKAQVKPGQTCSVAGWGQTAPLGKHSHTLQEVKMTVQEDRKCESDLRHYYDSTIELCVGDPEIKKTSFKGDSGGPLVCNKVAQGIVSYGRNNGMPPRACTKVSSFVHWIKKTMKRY

B1: Procaspase-3: Recombinant Human procaspase-3 (MBL/BioVision), positive control in the in vitro protease assay of Granzyme B (protein, UniProt P42574 1-277, looked up)
pro-form: MENTENSVDSKSIKNLEPKIIHGSESMDSGISLDNSYKMDYPEMGLCIIINNKNFHKSTGMTSRSGTDVDAANLRETFRNLKYEVRNKNDLTREEIVELMRDVSKEDHSKRSSFVCVLLSHGEEGIIFGTNGPVDLKKITNFFRGDRCRSLTGKPKLFIIQACRGTELDCGIETDSGVDDDMACHKIPVEADFLYAYSTAPGYYSWRNSKDGSWFIQSLCAMLKQYADKLEFMHILTRVNRKVATEFESFSFDATFHAKKQIPCIVSMLTKELYFYH
modifications: pro-form
notes: Recombinant Human procaspase-3 (MBL/BioVision), positive control in the in vitro protease assay of Granzyme B
  decomposition by Granzyme B: decomposed
